Results on one molecule are retold here after paper PMC3903573, “Effects of an Anticarcinogenic Bowman-Birk Protease Inhibitor on Purified 20S Proteasome and MCF-7 Breast Cancer Cells” (PLoS ONE, 2014).

Data set [1] concerns the molecule itself. Put plainly: dynamic light scattering; BTCI alone, 15 µM, pH 7.5; hydrodynamic diameter 4.5 nm.
Data set [2] concerns the target 20S proteasome purified from horse erythrocytes (horse). Kind of data set: enzyme inhibition assay (fluorogenic substrates, Morrison equation); 20S proteasome 2.0 µg/mL with BTCI 2.0 to 30.0 µg/mL and 62.5 µg/mL fluorogenic substrate; 20.0 mM Tris-HCl pH 7.5, 1.0 mM EDTA, 1.0 mM NaN3, 1.0 mM DTT; room temperature, 60 min; Ki fitted with GRAFIT. The following applies: both partners purified.

B1: Black-eyed pea Trypsin/Chymotrypsin Inhibitor (natural protein, Vigna unguiculata (Cowpea), UniProt P17734 1-83, looked up)
chain: SGHHXXSTXXASXSSKPCCRXCACTKSIPPXCRCSXVRLNSCHSACKSCACTFSIPAXCFCGXIXXFCYKPCKSSHSXXXXWN
modifications: X not resolved here
notes: 83 amino acid residues, seven disulfide bonds, 9.1 kDa; reactive sites Lys26 (trypsin) and Phe53 (chymotrypsin); By DLS a trimer at 15 µM and pH 7.5; also called BTCI; source: isolated from Vigna unguiculata (Cowpea) seeds, purified as previously described [29]
What is called stoichiometry N is a count of units in the complex or per binding partner. With B1, the “stoichiometry N” value in data set [1] is 3. In data set [2], the “KI or Kd, caspase-like site” value amounted to 1.4 µM; the “KI or Kd, chymotrypsin-like site” value came out at 700 nM; the “KI or Kd, trypsin-like site” value worked out at 100 nM.
